This note sets out measurements from article PMC9224930, “VH3-53/66-Class RBD-Specific Human Monoclonal Antibody iB20 Displays Cross-Neutralizing Activity against Emerging SARS-CoV-2 Lineages” (Journal of Personalized Medicine, 2022).

The target of this experiment is T1, SARS-CoV-2 Wuhan-1 receptor-binding domain (RBD) (SARS-CoV-2 (Wuhan-1), UniProt P0DTC2).
T1 construct: also called Wuhan RBD; w.t; RBD
The experiment is described as follows: BLI; pairwise competition on NTA biosensors (Octet RED96): Wuhan RBD immobilised via its 6xHis tag (200 s), first antibody added (600 s), then the second (600 s). The settings on record: both partners purified.

B1: nAb CV30 (antibody, V domains shown)
VH: QVQLVESGGGLIQPGGSLRLSCAASGVIVSSNYMSWVRQAPGKGLEWVSVIYSGGSTYYADSVKGRFTISRDNSKNTLYLQMNSLRAEDTAVYYCARDLDVSGGMDVWGQGTTVTVSS
VL: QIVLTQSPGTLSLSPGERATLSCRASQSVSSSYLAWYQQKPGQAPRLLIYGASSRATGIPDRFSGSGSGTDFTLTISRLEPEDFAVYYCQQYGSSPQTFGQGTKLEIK
notes: also called recombinant CV30
In the case of B1, the binding result is on record as “binds”.
